The values that follow are results of earlier work, collected in publication PMC4604100, “Melanocortin agonists stimulate lipolysis in human adipose tissue explants but not in adipocytes” (BMC Research Notes, 2015).

The data set concerns MC1R. As to conditions: ref [24]. The text has this:
It is still rather unclear as to what extent peripherally expressed MCRs regulate metabolism. […] In addition, POMC expression has been identified in peripheral tissues such as the skin, testes, ovaries, placenta, adrenal glands, gastrointestinal tract, immune cells and tumors. The peripheral melanocortin system was initially examined f ...

B1: Agouti/ASIP: agouti/agouti signaling protein, endogenous melanocortin receptor antagonist (protein, UniProt P42127 23-132, looked up)
Agouti-signaling protein: HLPPEEKLRDDRSLRSNSSVNLLDVPSVSIVALNKKSKQIGRKAAEKKRSSKKEASMKKVVRPRTPLSAPCVATRNSCKPPAPACCDPCASCQCRFFRSACSCRVLSLNC
As to B1, the “antagonism on MC1R (in words)” value is “high affinity antagonist”.
